Where two headings read alike, the source gives them in different places. Starred links: 1 amine or outer side, 2 acyl side, 3 side chain; linkers in the order of their positions; H or OH if unused. Positions of bridges follow the written chain, without caps; N, C: chain ends. Non-standard residues stand in square brackets, D forms with d. Residues, ends and D or L forms follow the SMILES beside them. *: point of attachment. Leu(3R-OH,Nα-propionyl) = CCC(=O)N[C@H](C(=O)*)[C@H](O)C(C)C; X1 = CC(C)[C@@H](O[*:3])[C@H](N[*:1])C(=O)[*:2]; NMeT = CN[C@H](C(=O)O)[C@@H](C)O; dPhLac = O=C(O)[C@H](O)Cc1ccccc1; NMeA = CN[C@@H](C)C(=O)O; NMeDha = C=C(NC)C(=O)O
B1: MOR024354: anti-PMEL17 antibody (IgG) (antibody, V domains shown)
VH: QVQLLESGGGLVQPGGSLRLSCAASGFTFSSFGMSWVRQAPGKGLEWVSAISYSGSDTYYADSVKGRFTISRDNSKNTLYLQMNSLRAEDTAVYYCARDVGVMDYWGQGTLVTVSS
VL: SYELTQPLSVSVALGQTARITCSGDNLGTYYAHWYQQKPGQAPVLVIYSQSHRPSGIPERFSGSNSGNTATLTISRAQAGDEADYYCGAWDAPSPELVFGGGTKLTVL
B2: Y010355: anti-PMEL17 antibody (IgG) (antibody, V domains shown)
VH: EVQLVESGGGLVKPGGSLRLSCAASGFTFSNYWISWVRQAPGKGLEWVGRIKSKTYGGTTDYAEPVKGRFTISRDDSKNTLYLQMNSLKTEDTAVYYCARTSRRSYAFDYWGQGTLVTVSS
VL: DIQMTQSPSTLSASVGDRVTITCRASQSISSWLAWYQQKPGKAPKLLIYDASSLESGVPSRFSGSGSGTEFTLTISSLQPEDFATYYCQQITRYPVTFGQGTKVEIK
B3: Y010903: anti-PMEL17 antibody (IgG) (antibody, V domains shown)
VH: EVQLVESGGGLVKPGGSLRLSCAASGFTFSNAWMSWVRQAPGKGLEWVGRIKSKTDAGTTDYAAPVKGRFTISRDDSKNTLYLQMNSLKTEDTAVYYCARASHRLHSLFDVWGQGTLVTVSS
VL: DIQMTQSPSTLSASVGDRVTITCRASQSISSWLAWYQQKPGKAPKLLIYDASSLESGVPSRFSGSGSGTEFTLTISSLQPEDFATYYCQQGLFYPHTFGQGTKVEIK
B4: Y010900: anti-PMEL17 antibody (IgG) (antibody, V domains shown)
VH: EVQLVESGGGLVKPGGSLRLSCAASGFTFSNAWMSWVRQAPGKGLEWVGRIKSKTDAGTTDYAAPVKGRFTISRDDSKNTLYLQMNSLKTEDTAVYYCARTIYPSAPSSSLDYWGQGTLVTVSS
VL: DIQMTQSPSSLSASVGDRVTITCRASQGISNYLAWYQQKPGKVPKLLIYAASTLQSGVPSRFSGSGSGTDFTLTISSLQPEDVATYYCQQLIFFPLTFGQGTKVEIK
B5: Y010356: anti-PMEL17 antibody (IgG) (antibody, V domains shown)
VH: EVQLVESGGGLVKPGGSLRLSCAASGFTFSNYWISWVRQAPGKGLEWVGRIKSKTYGGTTDYAEPVKGRFTISRDDSKNTLYLQMNSLKTEDTAVYYCARVSGYYSHSGGFDVWGQGTLVTVSS
VL: DIQMTQSPSSLSASVGDRVTITCRASQGISNYLAWYQQKPGKVPKLLIYAASTLQSGVPSRFSGSGSGTDFTLTISSLQPEDVATYYCQKTWRTPGTFGQGTKVEIK
B6: Y010910: anti-PMEL17 antibody (IgG) (antibody, V domains shown)
VH: EVQLVESGGGLVKPGGSLRLSCAASGFTFSNAWMSWVRQAPGKGLEWVGRIKSKTDAGTTDYAAPVKGRFTISRDDSKNTLYLQMNSLKTEDTAVYYCARVASPSAPGGFDYWGQGTLVTVSS
VL: DIQMTQSPSSLSASVGDRVTITCRASQGISNYLAWYQQKPGKVPKLLIYAASTLQSGVPSRFSGSGSGTDFTLTISSLQPEDVATYYCQQSLFAPFTFGQGTKVEIK
B7: Y010906: anti-PMEL17 antibody (IgG) (antibody, V domains shown)
VH: EVQLVESGGGLVKPGGSLRLSCAASGFTFSNAWMSWVRQAPGKGLEWVGRIKSKTDAGTTDYAAPVKGRFTISRDDSKNTLYLQMNSLKTEDTAVYYCARDEYPWGWFDVWGQGTLVTVSS
VL: DIQMTQSPSSVSASVGDRVTITCRASQGISSWLAWYQQKPGKAPKLLIYAASSLQSGVPSRFSGSGSGTDFTLTISSLQPEDFATYYCQQYIFYPLTFGQGTKVEIK

What was measured:
92.1 uveal melanoma = test: Resazurin-based viability assay, 92.1 uveal melanoma cells; type: cell-based; conditions: 92.1 GNAQ^Q209L; Table 1; read-out: GI50 (nM) 92.1GNAQ^Q209L
Method: (§1) Following drug treatment for 96 or 120 hours, cell viability and proliferation were determined using a resazurin-based viability assay. Briefly, cells were incubated with a resazurin-based solution and color change was detected by absorbance with a spectrophotometer and used as a readout of cell viability. Data presented as mean of 3 independent replicates and relative to PBS-treated cells (control).
Following drug treatment for 96 or 120 hours, cell viability and proliferation were determined using a resazurin-based viability assay. Briefly, cells were incubated with a resazurin-based solution and color change was detected by absorbance with a spectrophotometer and used as a readout of cell viability. Data presented as mean of 3 independent replicates and relative to PBS-treated cells (control) (FIG. 6).
Following drug treatment for 96 or 120 hours, cell viability and proliferation were determined using a resazurin-based viability assay. Data presented as mean of 3 independent replicates and relative to PBS-treated cells (control) (FIG. 8).
as §1

human PMEL17 = target: T1, human PMEL17 (Homo sapiens, UniProt P40967); test: Apparent affinity by FACS titration of IgGs on G-361 melanoma cell line; type: binding
T1 construct: G-361 melanoma cell line expresses human PMEL17 at a lower level compared to the HKB11-human PMEL17 overexpressing cell line; endogenous in cells; host or cells: G-361 (human melanoma)
T1 sequence (P40967 25-661): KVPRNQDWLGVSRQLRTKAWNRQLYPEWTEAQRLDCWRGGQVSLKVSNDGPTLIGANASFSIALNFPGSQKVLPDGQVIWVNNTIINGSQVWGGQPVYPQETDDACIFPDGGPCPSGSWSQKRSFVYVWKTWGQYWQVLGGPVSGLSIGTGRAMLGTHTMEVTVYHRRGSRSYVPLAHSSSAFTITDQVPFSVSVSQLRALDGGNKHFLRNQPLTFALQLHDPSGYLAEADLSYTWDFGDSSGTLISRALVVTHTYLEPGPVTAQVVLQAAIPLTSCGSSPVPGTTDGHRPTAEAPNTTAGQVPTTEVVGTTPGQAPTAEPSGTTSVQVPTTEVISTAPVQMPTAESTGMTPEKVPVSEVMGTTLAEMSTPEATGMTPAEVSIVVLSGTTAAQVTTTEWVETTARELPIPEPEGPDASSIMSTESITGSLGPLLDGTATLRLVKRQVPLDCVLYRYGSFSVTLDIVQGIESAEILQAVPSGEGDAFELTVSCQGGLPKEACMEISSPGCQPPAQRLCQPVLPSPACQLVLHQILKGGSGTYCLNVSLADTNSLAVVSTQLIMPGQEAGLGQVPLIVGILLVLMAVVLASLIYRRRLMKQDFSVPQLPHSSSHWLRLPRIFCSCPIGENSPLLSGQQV
Method: (§2) Purified IgGs were titrated on a variety of PMEL17 expressing and PMEL17 non expressing cell lines (for control) to determine EC50 values. Cells were harvested using Accutase, adjusted to ˜4×10^6 cells/ml into FACS buffer (PBS, 3% FCS and 0.02% Na-Azide) and kept on ice to avoid internalization. 15 μl of cell suspension/well were transferred into 384 well V-bottom plates (Greiner, Cat #781280) and incubated with 15 μl of IgGs at different concentrations (most commonly from 200 to 3.5×10−3 nM) for 1 hour at 4° C., gently shaking. Following incubation, cells were washed three times with FACS buffer. After each washing step, cells were centrifuged (250×g, 5 min, 4° C.) and carefully resuspended. 15 μl of detection antibody conjugated to PE (PE-conjugated goat anti-human IgG, F(ab′)2 fragment specific, 1:150 in FACS buffer; Jackson Immuno Research, #109-116-097) or Alexa Fluor (Alexa Fluor-conjugated goat anti-human IgG, F(ab′)2 fragment specific, 1:150 in FACS buffer; Jackson Immuno Research, #109-606-097) were added and samples were incubated for 45 minutes to 1 hour on ice in the dark, gently shaking. After 3 washing steps, cells were resuspended in 30 μl of FACS buffer and samples were measured using the IntelliCyt HTFC device. EC50 values were calculated using the Graphpad Prism software. G-361 melanoma cell line expresses human PMEL17 at a lower level compared to the HKB11-human PMEL17 overexpressing cell line, and therefore allows a more precise ranking of the clones depending on their apparent affinity on cells.
The cross-specificity of the IgGs was evaluated in does response FACS on G-361 (human melanoma), HKB11-cyno-PMEL17, HKB11-rat PMEL17 and B16-F10 (mouse PMEL17 expressing melanoma) (Table 3). […]

mouse PMEL17 = target: T2, mouse PMEL17 (Mus musculus, UniProt Q60696); test: Apparent affinity by FACS titration of IgGs on B16-F10 melanoma cells; type: binding; conditions: Alexa Fluor
T2 construct: B16-F10 (mouse PMEL17 expressing melanoma); endogenous in cells; host or cells: B16-F10 (mouse melanoma)
T2 sequence (Q60696 24-626): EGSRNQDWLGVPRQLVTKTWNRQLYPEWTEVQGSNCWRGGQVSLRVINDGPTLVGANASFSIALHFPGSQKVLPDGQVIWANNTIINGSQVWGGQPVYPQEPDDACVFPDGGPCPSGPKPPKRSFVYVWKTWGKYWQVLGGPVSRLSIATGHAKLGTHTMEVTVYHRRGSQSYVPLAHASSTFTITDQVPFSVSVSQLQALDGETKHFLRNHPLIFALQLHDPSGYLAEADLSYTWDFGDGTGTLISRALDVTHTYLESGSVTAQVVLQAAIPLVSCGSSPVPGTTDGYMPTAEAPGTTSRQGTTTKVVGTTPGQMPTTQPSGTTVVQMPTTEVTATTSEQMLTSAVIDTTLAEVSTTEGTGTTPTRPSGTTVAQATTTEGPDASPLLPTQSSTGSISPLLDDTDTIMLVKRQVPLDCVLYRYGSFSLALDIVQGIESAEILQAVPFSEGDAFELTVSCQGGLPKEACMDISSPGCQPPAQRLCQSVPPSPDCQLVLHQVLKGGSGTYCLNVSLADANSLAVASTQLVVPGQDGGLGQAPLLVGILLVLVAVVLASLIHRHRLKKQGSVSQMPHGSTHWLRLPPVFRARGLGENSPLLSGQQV
Method: as §2
(§3) The cross-specificity of the IgGs was evaluated in does response FACS on G-361 (human melanoma), HKB11-cyno-PMEL17, HKB11-rat PMEL17 and B16-F10 (mouse PMEL17 expressing melanoma) (Table 3). Testing on G-361 was performed using a detection antibody labelled to PE. In contrast, an Alexa-Fluor labelled detection antibody had to be used for testing the candidates on the other cell lines so as to reach detectable signals.

PMEL17 = test: Cross-reactivity (cross-specificity profile) of anti-PMEL17 IgGs in dose response FACS; type: binding; parameters: key: h/c/r/m: human/cyno/rat/mouse; h/c/r: human/cyno/rat; h/c/(m): human/cyno/mouse; h/c: human/cyno; conditions: h human, c cyno, r rat, m mouse
Method: as §3
IgGs were classified into several epitope groups according to their cross-specificity profiles.

UACC-62 = test: FACS titration of IgGs on UACC-62 cells; type: binding; conditions: UACC-62, PE-labelled detection antibody
Method: as §2

[1] = G-361, Alexa Fluor-labelled detection antibody, read-out: FACS EC50 (nM) G-361 (Alexa Fluor)
[2] = G-361, PE-labelled detection antibody, read-out: FACS EC50 (nM) G-361 (PE)

Row | Molecule | GI50 (92.1 uveal melanoma) [nM] | EC50 (human PMEL17; [1]) [nM] | EC50 (mouse PMEL17) [nM] | Cross spe profile (based on C14 detection ab) (PMEL17) | UACC-62 (PE) (UACC-62) | EC50 (human PMEL17; [2]) [nM]
1 | C=C1C(=O)N[C@@H](C)C(=O)N(C)[C@@H](C)C(=O)N[C@@H]([C@H](OC(=O)[C@@H](NC(=O)CC)[C@H](O)C(C)C)C(C)C)C(=O)N(C)[C@@H]([C@@H](C)OC)C(=O)O[C@H](C)[C@H](NC(C)=O)C(=O)O[C@H](Cc2ccccc2)C(=O)N1C [Compound (A3), (R)-1-((3S,6S,9S,12S,18R,21S,22R)-21-acetamido-18-benzyl-3-((R)-1-methoxyethyl)-4,9,10,12,16,22-hexamethyl-15-methylene-2,5,8,11,14,17,20-heptaoxo-1,19-dioxa-4,7,10,13,16-pentaazacyclodocosan-6-yl)-2-methylpropyl (2S,3R)-3-hydroxy-4-methyl-2-propionamidopentanoate] (Ac-T[dPhLac][NMeDha]A[NMeA][X1](Leu(3R-OH,Nα-propionyl))[NMeT](Me); ester 1-C) | 9.3 |  |  |  |  | 
2 | B1 |  | 1.7 | > 100 | h/c/r | Negative | 
3 | B2 |  |  |  | h/c/r/m | Negative | 0.5
4 | B3 |  | 3.2 |  | h/c/(m) | Negative | 
5 | B4 |  | 1.3 | > 100 | h/c/r/m | Negative | 
6 | B5 |  |  |  | h/c/r/m | Negative | 1.6
7 | B6 |  | 10 |  | h/c/(m) | Negative | 
8 | B7 |  |  |  | h/c/r/m | Negative | 
